Assay results taken from patent US20230312724A1 (KADMON, published 2023).
Numbering of substitutions follows the chain as printed. Where two headings read alike, the source gives them in different places. One block for each binder: values may come before it.

Legend:
[1] = target: T1, human B7-H4 expressed on cells (human, UniProt Q7Z7D3 25-282); experiment: flow cytometry, SK-BR-3 cells
T1 construct: Transfected CHO cells or tumor cell lines that carry hB7-H4; also called cellular hB7-H4
T1 sequence: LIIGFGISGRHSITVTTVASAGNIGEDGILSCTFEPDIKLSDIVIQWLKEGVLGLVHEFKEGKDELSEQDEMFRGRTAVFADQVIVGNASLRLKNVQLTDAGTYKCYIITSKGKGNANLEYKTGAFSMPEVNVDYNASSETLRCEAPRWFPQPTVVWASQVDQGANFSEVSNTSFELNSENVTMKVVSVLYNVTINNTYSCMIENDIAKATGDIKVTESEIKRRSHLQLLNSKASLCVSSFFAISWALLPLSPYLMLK
Summary of the method: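 Binding read on a Guava flow cytometer after two-step staining at 4 °C: serial dilutions of antibody or fusion protein for 1 h, then 1:200 secondary antibody for 30 min in the dark. Cells suspended at 1×10⁶ cells/ml in cold FACS buffer, washed three times between steps.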

[2] = target: T2, IgV domain of mouse B7-H4-Fc (mouse; human); experiment: ELISA, coated mB7-H4 IgV domain
T2 construct: also called mB7-H4 IgV domain
T2 sequence (chain, as listed by the source): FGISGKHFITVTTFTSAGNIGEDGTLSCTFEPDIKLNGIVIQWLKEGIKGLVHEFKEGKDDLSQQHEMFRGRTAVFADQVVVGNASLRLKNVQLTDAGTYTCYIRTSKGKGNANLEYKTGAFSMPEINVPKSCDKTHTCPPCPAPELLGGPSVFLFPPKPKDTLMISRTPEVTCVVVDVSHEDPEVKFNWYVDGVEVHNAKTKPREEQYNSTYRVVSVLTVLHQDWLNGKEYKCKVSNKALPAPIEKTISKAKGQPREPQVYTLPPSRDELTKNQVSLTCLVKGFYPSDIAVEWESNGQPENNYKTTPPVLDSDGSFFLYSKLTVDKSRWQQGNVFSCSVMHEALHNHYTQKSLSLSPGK
Method: (§1) ELISA experiments were performed to determine binding to hB7-H4-Fc (FIG. 4A), hB7-H4-his (FIG. 4B), hB7-H4 IgV domain (FIG. 4C), and mB7-H4 IgV domain (FIG. 4D). Flow cytrometry experiments were performed to determine binding to CHO cells expressing hB7-H4 (FIG. 4E) or mB7-H4 (FIG. 4F). […] A cross-reactive IgV binding antibody was used as a control.
(§2) About 1-2 μg/ml of human or mouse B7-H4-Fc (or his-tagged) was immobilized on ELISA plates (Immuno 2HB, Thermo scientific, cat #3455) at 4° C. overnight. After blocking the plates with 3% PBS+milk, serial diluted antibodies were added to the blocked plates and incubated at RT for 1-1.5 h. After washing the plates with PBS-T (0.05%), horse radish peroxidase (HRP)-conjugated antibody targeting the hFab was added to the plate. Signals were developed by adding 3,3′,5,5′-Tetramethylbenzidine (TMB (followed 1N of H₂SO₄ to stop the reaction. The OD at 450 nm was read by ELISA plate reader (Infinite M1000 from TECAN). GraphPad from Prism was used to plot OD450 vs. antibody concentration curve and to calculate the EC50 values.

[3] = target: T3, mouse B7-H4 expressed on cells (mouse, UniProt Q7TSP5 25-257); experiment: flow cytometry, CHO cells expressing mB7-H4
T3 construct: also called cellular mB7-H4; mB7-H4/CT26
T3 sequence: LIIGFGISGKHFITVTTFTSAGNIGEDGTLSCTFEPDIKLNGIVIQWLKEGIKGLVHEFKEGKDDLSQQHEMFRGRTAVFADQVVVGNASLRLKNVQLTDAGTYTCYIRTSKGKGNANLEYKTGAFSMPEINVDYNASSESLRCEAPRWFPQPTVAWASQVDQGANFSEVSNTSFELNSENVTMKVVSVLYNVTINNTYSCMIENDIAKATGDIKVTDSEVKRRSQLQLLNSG
Method: (§3) ELISA experiments were performed to determine binding to hB7-H4-Fc (FIG. 3A), hB7-H4-his (FIG. 3B), mB7-H4-Fc (FIG. 3C), and hB7-H4 IgV domain (FIG. 3D). Flow cytometry experiments were performed to determine binding to CHO cells expressing hB7-H4 (FIG. 3E) or mB7-H4 (FIG. 3F).
Cells were harvested, washed once, and then re-suspended to the concentration of 1×10⁶ cells/ml in ice cold FACS Buffer. 25 μl of cell suspension was added to each well of a 96-well round-bottom microliter plate. Serially diluted antibodies or fusion proteins were added to each well and incubated for 1 hour at 4° C. Cells were washed three times by centrifugation at 1500 rpm for 5 minutes, and then stained with secondary antibody (1:200 dilution) for 30 min at 4° C. in the dark. Cells were washed once, re-suspended in 100 μl PBS buffer and then analyzed using Guava Flow Cytometry EasyCyte system.

mouse B7-H4-his = target: T4, mouse B7-H4-his (mouse, UniProt Q7TSP5 25-257); experiment: ELISA, coated mB7-H4-his
T4 construct: also called mB7-H4-his; mB7-H4-His; not shown: his tag
T4 sequence: T3 sequence
Method: as §2

[4] = target: T5, IgC domain of mouse B7-H4-Fc (mouse; human); experiment: ELISA, coated mB7-H4 IgC domain (title on the sheet: IgC domain of mB7H4)
T5 construct: also called mB7-H4 IgC domain
T5 sequence (chain, as listed by the source): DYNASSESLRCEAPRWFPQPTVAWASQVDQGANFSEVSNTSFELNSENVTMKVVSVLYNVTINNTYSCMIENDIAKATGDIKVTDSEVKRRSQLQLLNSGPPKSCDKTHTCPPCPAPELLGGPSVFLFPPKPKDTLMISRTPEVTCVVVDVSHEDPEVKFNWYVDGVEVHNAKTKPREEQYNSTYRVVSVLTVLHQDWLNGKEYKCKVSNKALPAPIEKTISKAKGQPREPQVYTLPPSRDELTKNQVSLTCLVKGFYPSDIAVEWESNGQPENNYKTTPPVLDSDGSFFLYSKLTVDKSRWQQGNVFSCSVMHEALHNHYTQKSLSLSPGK
Method: as §2

human B7-H4-Fc [5] = target: T6, human B7-H4-Fc (human); experiment: ELISA, coated hB7-H4-Fc
T6 construct: also called hB7-H4-Fc; hB7-H4 Fc
T6 sequence (chain, as listed by the source): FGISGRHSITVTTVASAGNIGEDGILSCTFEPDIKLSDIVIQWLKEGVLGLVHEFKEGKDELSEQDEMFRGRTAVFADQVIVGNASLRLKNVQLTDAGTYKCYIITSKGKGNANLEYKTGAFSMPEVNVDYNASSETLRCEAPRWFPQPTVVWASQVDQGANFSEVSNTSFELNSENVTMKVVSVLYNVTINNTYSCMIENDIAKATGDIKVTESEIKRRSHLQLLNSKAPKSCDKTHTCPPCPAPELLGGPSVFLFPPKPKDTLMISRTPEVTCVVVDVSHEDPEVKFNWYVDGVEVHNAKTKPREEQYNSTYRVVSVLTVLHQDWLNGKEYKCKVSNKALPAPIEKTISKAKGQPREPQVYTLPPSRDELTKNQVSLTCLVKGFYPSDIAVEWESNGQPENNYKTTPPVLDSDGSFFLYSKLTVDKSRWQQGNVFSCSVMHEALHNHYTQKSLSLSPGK
Method: as §1, §2

[6] = target: T7, hB7-H4 (soluble human B7-H4, construct not named) (human, UniProt Q7Z7D3 25-259, limits assumed); experiment: SPR (Biacore)
T7 construct: also called soluble hB7-H4
T7 sequence: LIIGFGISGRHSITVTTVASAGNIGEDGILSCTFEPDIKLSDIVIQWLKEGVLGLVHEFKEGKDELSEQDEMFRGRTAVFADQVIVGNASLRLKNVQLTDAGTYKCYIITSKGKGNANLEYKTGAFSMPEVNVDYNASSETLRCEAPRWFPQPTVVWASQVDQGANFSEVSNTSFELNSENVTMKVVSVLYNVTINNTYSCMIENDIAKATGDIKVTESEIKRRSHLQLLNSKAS
Summary of the method: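 Kinetic constants came from a 1:1 Langmuir fit of binding at 25 °C in HBS-EP, pH 7.4. Analyte (100 nM to 0.1 nM) flowed for 180 s, then dissociated for 1000 or 1200 s, over amine-coupled human B7-H4-Fc, human B7-H4-his or mouse B7-H4-Fc surfaces at 50-100 RU.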

[7] = target: T8, mB7-H4 (soluble mouse B7-H4, construct not named) (mouse, UniProt Q7TSP5 25-257, limits assumed); experiment: summary of ELISA and flow cytometry
T8 sequence: T3 sequence

[8] = target: T9, IgV domain of human B7-H4-Fc (human); experiment: ELISA, coated hB7-H4 IgV domain
T9 construct: also called hB7-H4 IgV domain
T9 sequence (chain, as listed by the source): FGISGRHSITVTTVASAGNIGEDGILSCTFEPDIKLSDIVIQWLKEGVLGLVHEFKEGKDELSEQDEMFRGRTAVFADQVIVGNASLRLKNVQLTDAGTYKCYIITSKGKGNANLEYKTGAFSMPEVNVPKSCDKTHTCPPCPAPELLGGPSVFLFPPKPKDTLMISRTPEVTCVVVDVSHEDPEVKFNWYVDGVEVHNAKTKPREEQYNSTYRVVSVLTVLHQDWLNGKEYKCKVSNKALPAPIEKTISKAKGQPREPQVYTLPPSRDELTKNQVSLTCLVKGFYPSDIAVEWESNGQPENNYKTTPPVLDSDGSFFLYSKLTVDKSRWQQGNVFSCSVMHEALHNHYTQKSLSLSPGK
Method: as §1, §2

mouse B7-H4-Fc [9] = target: T10, mouse B7-H4-Fc (mouse; human); experiment: ELISA, coated mB7-H4-Fc
T10 construct: also called mB7-H4-Fc; mB7-H4-hFc
T10 sequence (chain, as listed by the source): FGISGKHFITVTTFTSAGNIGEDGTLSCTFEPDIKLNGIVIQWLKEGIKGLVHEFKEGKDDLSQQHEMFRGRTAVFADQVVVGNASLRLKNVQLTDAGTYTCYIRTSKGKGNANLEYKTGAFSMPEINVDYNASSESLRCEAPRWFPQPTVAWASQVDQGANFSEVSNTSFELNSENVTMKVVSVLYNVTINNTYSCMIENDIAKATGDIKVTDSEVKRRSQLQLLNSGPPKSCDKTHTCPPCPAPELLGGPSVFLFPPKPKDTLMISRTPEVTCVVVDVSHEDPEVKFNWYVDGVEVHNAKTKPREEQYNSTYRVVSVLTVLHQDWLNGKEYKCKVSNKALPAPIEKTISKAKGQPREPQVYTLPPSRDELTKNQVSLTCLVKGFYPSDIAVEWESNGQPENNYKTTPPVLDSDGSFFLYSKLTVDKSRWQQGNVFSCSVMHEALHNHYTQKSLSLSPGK
Method: as §3, §2

[10] = target: T7, hB7-H4 (soluble human B7-H4, construct …); experiment: ELISA, hB7-H4
Summary of the method: (§4)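 Direct binding ELISA: immobilized B7-H4-Fc or his-tagged antigen (~1-2 μg/ml, overnight, 4° C), antibody dilution series 1-1.5 h at RT. Readout OD450 after HRP anti-hFab and TMB; EC50 calculated.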

human B7-H4-Fc [11] = target: T6, human B7-H4-Fc; experiment: SPR (Biacore)
human B7-H4-his = target: T11, human B7-H4-his (human, UniProt Q7Z7D3 25-259); experiment: SPR (Biacore)
T11 construct: also called hB7-H4-his; hB7-H4 his; not shown: his tag
T11 sequence: T7 sequence

[12] = target: T8, mB7-H4 (soluble mouse B7-H4, construct …); experiment: ELISA and SPR (Biacore)
Method: as §2
Surface plasmon resonance experiments were performed using a Biacore T200 instrument equipped with CM5 sensor chips. The system was equilibrated in running buffer HBS-EP pH 7.4. The ligands were immobilized using amine-coupling chemistry. The surfaces of flow cells one through four were activated for 5 min using an amine coupling kit at a flow rate of […]. The ligands (human B7-H4-Fc, human B7-H4-hism and mouse B7-H4-Fc; at a concentration of 5 μg/ml in 10 mM sodium acetate, pH 5.0) were immobilized at a density of 50-100 RU on flow cell 2, 3, 4 respectively. Flow cell 1 was left blank to serve as a reference surface. All flow cell surfaces were blocked with a 5 min injection of 1 M ethanolamine, pH 8.0. To collect kinetic binding data, the respective analyte (diluted in 1×HBS-EP buffer, pH 7.4) was injected over the four flow cells at concentrations of 100 nM to 0.1 nM at a flow rate of […] and at a temperature of 25° C. The protein complex was allowed to associate and dissociate for 180 seconds and 1000 or 1200 seconds, respectively. The surfaces were regenerated with a 30 second injection of 1.5 M NaCl/0.05 M NaOH. The data were fit to a simple 1:1 interaction model using the Langmuir fit option available within the Biaevaluaton software

mouse B7-H4-Fc [13] = target: T10, mouse B7-H4-Fc; experiment: ELISA, coated mB7-H4-Fc (title on the sheet: Binding to mB7-H7-Fc)
Method: as §2

[14] = target: T2, IgV domain of mouse B7-H4-Fc; experiment: ELISA, coated mB7-H4 IgV domain; remark: listed apart in the source
Summary of the method: as §4

[15] = target: T12, IgC domain of human B7-H4-Fc (human); experiment: ELISA, coated hB7-H4 IgC domain (title on the sheet: IgC domain of hB7H4)
T12 construct: also called hB7-H4 IgC domain
T12 sequence (chain, as listed by the source): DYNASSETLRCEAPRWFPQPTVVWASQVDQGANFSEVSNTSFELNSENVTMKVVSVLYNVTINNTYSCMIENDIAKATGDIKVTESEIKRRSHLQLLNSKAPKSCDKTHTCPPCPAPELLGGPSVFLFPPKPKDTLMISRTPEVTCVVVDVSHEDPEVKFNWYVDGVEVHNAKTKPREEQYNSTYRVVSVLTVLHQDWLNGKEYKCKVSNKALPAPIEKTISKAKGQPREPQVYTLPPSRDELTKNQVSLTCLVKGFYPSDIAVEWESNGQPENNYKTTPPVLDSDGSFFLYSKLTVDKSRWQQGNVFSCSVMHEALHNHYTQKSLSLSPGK
Method: as §2

[16] = target: T3, mouse B7-H4 expressed on cells; experiment: flow cytometry, CHO cells expressing mB7-H4; remark: listed apart in the source

EC50 [1]: 18.6 nM
binding result [2]: no binding
EC50 (read off the curve) (human B7-H4-Fc [5]): ~7 ng/mL
Kd [6]: 0.775 nM
binding result [7]: no binding
EC50 (read off the curve) [8]: ~10 ng/mL
EC50 [10]: 0.044 nM
Kd (human B7-H4-Fc [11]): 0.805 nM
Kd (human B7-H4-his): 0.551 nM
B1: 1D3/1D3 (antibody, human IgG1, V domains shown)
VH: EVQLLESGGGLVQPGGSLRLSCAASGFTFNTHAMHWVRQAPGKGLEWVSAISGSGGSTYYADSVKGRFTISRDISKNTLYLQMNSLRAEDTAVYYCARLLGRFGEYGMDVWGQGTTVTVSS
VL: DIQMTQSPSSLSASVGDRVTITCRASRSIYTWLAWYQQKPGKAPKLLIYDASTLQSGVPSRFSGSGSGTDFTLTISSLQPEDFATYYCQQSYSTPYTFGGGTKVEIK
binding result [3]: no binding (tested: axis value -7 (log scale labelled nM))
binding result (mouse B7-H4-his): no binding (tested: axis value -8 (labelled log nM))
binding result [4]: no binding (tested: axis value -8 (labelled log nM))
binding result (mouse B7-H4-Fc [9]): no binding (tested: axis value -8 (log scale labelled nM))

binding result [12]: no binding
EC50 [1]: 36 nM
binding result [16]: no binding (tested: log 2 nM (100 nM))
Kd [6]: 0.209 nM
EC50 [10]: 0.078 nM
B2: 1D3/47B2 (antibody, human IgG1, V domains shown)
VH: B1 VH
VL: B1 VL with R27Q, S28T, I29V, S52T, T53N, Q55A, S56T, P95S, Y96W
notes: 1D3 VH with 47B2 VL
binding result (mouse B7-H4-Fc [13]): no binding (tested: axis value -8 (log scale labelled nM))
binding result [14]: no binding (tested: axis value -8 (labelled log nM))
binding result [15]: no binding (tested: axis value -8 (labelled log nM))
binding result (mouse B7-H4-his): no binding (tested: axis value -8 (labelled log nM))
binding result [4]: no binding (tested: axis value -8 (labelled log nM))
